Measurements from IntAct's records for PubMed 23956175.

B1: Protein disulfide isomerase Creld2 (Mus musculus), Q9CYA0 (parent)
chain: MHLLLAAAFGLLLLLPPPGAVASRKPTMCQRCRTLVDKFNQGMANTARKNFGGGNTAWEEKTLSKYEFSEIRLLEIMEGLCDSSDFECNQLLEQQEEQLEAWWQTLKKEHPNLFEWFCVHTLKACCLPGTYGPDCQECQGGSERPCSGNGYCSGDGSRQGDGSCQCHTGYKGPLCIDCTDGFFSLQRNETHSICSACDESCKTCSGPSNKDCIQCEVGWARVEDACVDVDECAAETSPCSDGQYCENVNGSYTCEDCDSTCVGCTGKGPANCKECIAGYTKESGQCTDIDECSLEEKACKRKNENCYNVPGSFVCVCPEGFEETEDACVQTAEGKVTEENPTQPPSREDL
partner: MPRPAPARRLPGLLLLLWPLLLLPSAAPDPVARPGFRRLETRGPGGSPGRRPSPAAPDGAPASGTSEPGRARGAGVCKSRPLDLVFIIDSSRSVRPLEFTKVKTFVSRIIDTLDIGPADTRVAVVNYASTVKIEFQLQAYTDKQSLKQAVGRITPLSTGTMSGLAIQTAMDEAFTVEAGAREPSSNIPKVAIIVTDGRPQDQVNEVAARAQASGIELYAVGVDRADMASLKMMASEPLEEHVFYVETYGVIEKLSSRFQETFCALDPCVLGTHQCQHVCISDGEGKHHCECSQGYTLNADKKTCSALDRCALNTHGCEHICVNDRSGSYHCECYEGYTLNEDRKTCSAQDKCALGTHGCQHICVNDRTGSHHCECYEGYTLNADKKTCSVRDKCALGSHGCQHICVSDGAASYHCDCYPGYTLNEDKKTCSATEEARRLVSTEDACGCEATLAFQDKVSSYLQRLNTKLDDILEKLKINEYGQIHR

Variants of: B1
Settings: with matn3_human MATN3, O15232

effect of a mutation on the interaction	Variant
causing an interaction	MHLLLAAAFGLLLLLPPPGAVASRKPTMCQRARTLVDKFNQGMANTARKNFGGGNTAWEEKTLSKYEFSEIRLLEIMEGLCDSSDFECNQLLEQQEEQLEAWWQTLKKEHPNLFEWFCVHTLKACCLPGTYGPDCQECQGGSERPCSGNGYCSGDGSRQGDGSCQCHTGYKGPLCIDCTDGFFSLQRNETHSICSACDESCKTCSGPSNKDCIQCEVGWARVEDACVDVDECAAETSPCSDGQYCENVNGSYTCEDCDSTCVGCTGKGPANCKECIAGYTKESGQCTDIDECSLEEKACKRKNENCYNVPGSFVCVCPEGFEETEDACVQTAEGKVTEENPTQPPSREDL [C32A]
